From patent publication US20230265192A1 (GIGAGEN, published 2023)
Substitutions are numbered along the chain they refer to.

B1: antibody A11 (L11H11) (antibody, V domains shown)
VH: QVQLVESGGGVVQPGRSLRLSCAASGFTFSSYGMHWVRQAPGKGLEWVAVIWYDVGNKYYIDSVKGRFTISRDNSKNTLYLQMNSLRAEDTAVYYCARDYYGSGSPRHFDYWGQGTLVTVSS
VL: DIQLTQSPSFLSASVGDRVTITCRASQGISSYLAWYQQKPGKAPKLLIYAASTLQSGVPSRFSGSGSGTEFTLTISSLQPEDFATYYCQQLNSYPPTFGQGTKVEIK
notes: also called aCTLA-4.31
B2: antibody A15 (L15H15) (antibody, V domains shown)
VH: QVQLVESGGGVVQPGRSLRLSCAASGFTFRSYGMHWVRQAPGKGLEWVAVIWYDGSNKHYADSVKGRFTISRDNSKNTLYLQMNSLRAEDTAVYYCARNGLIGAFDIWGQGTMVTVSS
VL: not shown
notes: also called aCTLA-4.18
B3: antibody A16 (L16H16) (antibody, V domains shown)
VH: B2 VH with R30S, M34I, H59Y, N99G, G100S, I102L, A104P, I107Y, M113L
VL: B1 VL with L4M, F10S, S31N, A43V, E70D, F83V, Q90N, L91Y, Y94A, P96W
notes: also called aCTLA-4.5
B4: antibody A17 (L17H17) (antibody, V domains shown)
VH: EVQLVESGGGLVQPGGSLRLSCAASGFTFSNYAMSWVRQAPGKGLEWVSAISGGGLSTYYADSVKGRFTISRDNSKNTLYLQMNSLRAEDTAVYYCAKDLLWLGFDYWGQGTLVTVSS
VL: DIQMTQSPSSLSASVGDRVTITCRASQAIRNDLGWYQQKPGKAPKRLIYAASSLQSGVPPRFSGSGSGTEFTLTISSLQPEDFATYYCLQHNSYPLTFGGGTKVEIK
notes: also called aCTLA-4.17
B5: Ipilimumab analog (antibody, V domains shown)
VH: QVQLVESGGGVVQPGRSLRLSCAASGFTFSSYTMHWVRQAPGKGLEWVTFISYDGNNKYYADSVKGRFTISRDNSKNTLYLQMNSLRAEDTAIYYCARTGWLGPFDYWGQGTLVTVSS
VL: not shown
notes: also called ipi analog; in-house produced ipilimumab
B6: antibody A27 (L27H27) (antibody, V domains shown)
VH: QVQLVQSGAEVKKPGASVKVSCKASGYTFTSYGISWVRQAPGQGLEWMGWISAYNGNTNYAQKLQGRVTMTTDTSTSTAYMELRSLRSDDTAVYYCGRWVRGVEYWGQGTLVTVSS
VL: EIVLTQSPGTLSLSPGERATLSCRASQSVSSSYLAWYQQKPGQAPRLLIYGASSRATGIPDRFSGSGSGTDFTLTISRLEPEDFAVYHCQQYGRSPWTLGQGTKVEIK
notes: also called aCTLA-4.8
B7: antibody A21 (L21H21) (antibody, V domains shown)
VH: QVQLVESGGGVVQPGRSLRLSCAASGFTFSSYGMHWVRQAPGKGLEWVAVIWYDGNNKYYADSVKGRFTISRDNSKNTLYLHMNSLRADDTAVYYCARMLRGAPYYYGMDVWGQGTTVTVSS
VL: not shown
notes: also called aCTLA-4.10
B8: antibody A26 (L26H26) (antibody, V domains shown)
VH: QVQLVQSGAEVKKPGASVKVSCKASDYTFTYYGISWVRQAPGQGLEWMGWISAYNGNTNYAQKLQGRVTMTTDTSTNTAYLELRSLRSDDTAVYYCARDYYDSSGYFDYWGQGTLVTVSS
VL: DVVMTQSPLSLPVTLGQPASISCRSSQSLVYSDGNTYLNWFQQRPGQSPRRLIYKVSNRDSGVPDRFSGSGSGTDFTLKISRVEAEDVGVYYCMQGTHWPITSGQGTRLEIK
notes: also called aCTLA-4.20
B9: antibody A14 (L14H14), GIGA-564 (antibody, V domains shown)
VH: QVQLVESGGGVVQPGRSLRLSCAASGFTFSSYGMHWVRQAPGTGLEWVAVIWYEGRNKYYADPVKGRFTISRDNSKNTLYLQMNSLRDDDTAVYYCARAGDLGAFDIWGQGTMVTVSSA
VL: not shown
notes: also called aCTLA-4.15
B10: antibody A12 (L12H12) (antibody, V domains shown)
VH: B2 VH with R30S, H59Y, I70F, N99G, I102M, I107Y, M113L
VL: not shown
notes: also called aCTLA-4.12; CTLA4.A12
B11: antibody A18 (L18H18) (antibody, V domains shown)
VH: B2 VH with R30S, H59F, R72S, N99G, L101H, I102L, A104S, I107Y, M113L
VL: EIVLTQSPGTLSLSPGERATLSCRASQSVSYLAWYQQKPGQAPRLLIYGASSRATGIPDRFSGSGSGTDFTLTISRLEPEDFAVYYCQQYGSSPWTFGQGTKVEIK
notes: also called aCTLA-4.11

biological target: T1, His-tagged cynomolgus CTLA-4 (CT4-C5227; Acro Biosystems) (cynomolgus, UniProt G7PL88 36-161); experiment: BLI (Octet)
T1 construct: also called soluble cynomolgus CTLA-4; cyno CTLA-4
Method: (§1) The binding specificity and affinity of each full-length antibody towards CTLA-4 were determined using biolayer interferometry (BLI) and/or surface plasmon resonance (SPR). Anti-cyno CTLA-4 and anti-mouse CTLA-4 affinities were tested using ForteBio (BLI). Anti-human CTLA-4 affinities were measured using Carterra (SPR).
(§2) For BLI, antibodies were loaded onto an Anti-Human IgG Fc (AHC) biosensor using the Octet Red96 system (ForteBio). Loaded biosensors were dipped into antigen dilutions beginning at 300 nM, with 6 serial dilutions at 1:3. Kinetic analysis was performed using a 1:1 binding model and global fitting.

T1 sequence (G7PL88 entry or part of it limits assumed, form in doubt): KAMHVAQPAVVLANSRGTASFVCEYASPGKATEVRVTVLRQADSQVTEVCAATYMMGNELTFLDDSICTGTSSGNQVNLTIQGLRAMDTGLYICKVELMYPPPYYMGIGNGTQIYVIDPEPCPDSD

Question: How did the Kd turn out when B1 was run?
Answer: 0.0016 µM

Question: How did the Kd turn out when B2 was run?
Answer: 0.0026 µM

Question: With B3 as the binder, how does the Kd read?
Answer: 0.0028 µM

Question: How did the Kd turn out when B4 was run?
Answer: 0.0063 µM

biological target: mouse CTLA-4 (mouse, UniProt P09793 36-161, limits assumed); experiment: BLI (Octet)
Method: as §1, §2

Sequence of mouse CTLA-4 (P09793 36-161 limits assumed): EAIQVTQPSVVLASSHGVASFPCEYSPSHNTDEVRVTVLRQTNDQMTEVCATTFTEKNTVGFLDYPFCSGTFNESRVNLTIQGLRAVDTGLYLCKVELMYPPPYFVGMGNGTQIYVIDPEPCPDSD

Question: Does B5 bind?
Answer: no binding (tested: 300 nM)

Question: Does B1 bind?
Answer: no binding (tested: 300 nM)

biological target: T2, His-tagged human CTLA-4 (CT4-H5229; Acro Biosystems) (human, UniProt P16410 36-161); experiment: SPR (Carterra)
T2 construct: bought soluble protein; also called soluble human CTLA-4; recombinant human CTLA-4; not shown: His tag
Method: (§3) Then, goat anti-Human IgG Fc (Southern Biotech 2047-01) was coupled for 10 minutes at […] in 10 mM Sodim Acetate pH 4.5 (Carterra Inc.). The surface was then deactivated with 1 M ethanolamine pH 8.5 (Carterra Inc.). Running buffer used for the lawn immobilization was HBS-EPC (10 mM HEPES, 150 mM NaCl, 3 mM EDTA, 0.05% Tween 20, pH 7.4; Teknova).
(§4) The sensor chip was then transferred to a continuous flow microspotter (CFM; Carterra Inc.) for array capturing. The mAb supernatants were diluted 50-fold ([…] final concentration) into HBS-EPC with 1 mg/mL BSA. The samples were each captured twice with 15-minute and 4-minute capture steps on the first and second prints, respectively, to create multiple densities, using a […] flow rate. The running buffer in the CFM was also HBS-EPC.
(§5) Next, the sensor chip was loaded onto an SPR reader (MX-96 system; Ibis Technologies) for the kinetic analysis. CTLA-4 was injected at five increasing concentrations in a four-fold dilution series with concentrations of 1.95, 7.8, 31.25, 125, and 500 nM in running buffer (HBS-EPC with 1.0 mg/mL BSA). CTLA-4 injections were 5 minutes with a 15-minute dissociation at […] in a non-regenerative kinetic series. An injection of the goat anti-Human IgG Fc capture antibody at […] was injected at the end of the series to verify the capture level of each mAb. Binding data was double referenced by subtracting an interspot surface and a blank injection and analyzed for ka (on-rate), kd (off-rate), and KD (affinity) using the Kinetic Interaction Tool software (Carterra Inc.).

T2 sequence (P16410 36-161 limits assumed): as the sequence (G7PL88 entry or part of it limits assumed, form in doubt) above, with N14S, T18I, M106L counted along it

Question: Which Kd does the source give for B6 here?
Answer: 0.12 µM

Question: Which Kd does the source give for B1 here?
Answer: 0.0075 µM

Question: For B7, which Kd is on record?
Answer: 0.031 µM

Question: Which Kd does the source give for B8 here?
Answer: 0.074 µM

Question: With B2 as the binder, how does the Kd read?
Answer: 0.01 µM

Question: Which Kd does the source give for B3 here?
Answer: 0.023 µM

Question: Which Kd does the source give for B4 here?
Answer: 0.051 µM

biological target: T2, His-tagged human CTLA-4 (CT4-H5229; …); experiment: SPR (Carterra); remark: another data set of the same source
Method: as §3, §4, §5

Question: For B6, which Kd is on record?
Answer: 0.12 µM

Question: And the koff?
Answer: 0.0036 s⁻¹

Question: What about the kon of the same binder?
Answer: 31000 M⁻¹ s⁻¹

Question: B1 was tested. Which Kd did it give?
Answer: 0.0075 µM

Question: And the koff?
Answer: 0.00035 s⁻¹

Question: And the kon?
Answer: 47000 M⁻¹ s⁻¹

Question: Which results are given for B7?
Answer: Kd: 0.031 µM; koff: 0.00055 s⁻¹; kon: 18000 M⁻¹ s⁻¹

Question: Which Kd does the source give for B8 here?
Answer: 0.074 µM

Question: What about the koff of the same binder?
Answer: 0.00026 s⁻¹

Question: What about the kon of the same binder?
Answer: 3500 M⁻¹ s⁻¹

Question: Which Kd does the source give for B2 here?
Answer: 0.01 µM

Question: And the koff?
Answer: 0.00073 s⁻¹

Question: And the kon?
Answer: 70000 M⁻¹ s⁻¹

Question: What does the source list for B3?
Answer: Kd: 0.023 µM; koff: 0.00072 s⁻¹; kon: 31000 M⁻¹ s⁻¹

Question: Which results are given for B4?
Answer: Kd: 0.051 µM; koff: 0.0034 s⁻¹; kon: 66000 M⁻¹ s⁻¹

biological target: T3, human CTLA-4 expressed on the cell surface (human, UniProt P16410 36-223); experiment: cell-based or functional assay
T3 sequence (P16410 36-223 limits assumed): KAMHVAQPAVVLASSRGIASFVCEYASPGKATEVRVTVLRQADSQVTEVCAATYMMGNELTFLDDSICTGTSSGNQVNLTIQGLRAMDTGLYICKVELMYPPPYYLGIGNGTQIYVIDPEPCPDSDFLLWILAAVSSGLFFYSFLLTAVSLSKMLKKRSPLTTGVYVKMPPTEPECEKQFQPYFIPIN

Question: B1 was tested. Which “Promega assay % inhibition” value did it give?
Answer: 26.6%

Question: And the “Promega assay antagonist (EC50, ug/mL)” value?
Answer: 0.42 µg/mL

Question: With B2 as the binder, how does the “Promega assay % inhibition” value read?
Answer: 0%

Question: B3 was tested. Which “Promega assay % inhibition” value did it give?
Answer: 0%

Question: Which “Promega assay % inhibition” value does the source give for B4 here?
Answer: 0%

biological target: T3, human CTLA-4 expressed on the cell …; experiment: flow cytometry, 10 µg/mL mAb, geometric MFI
Method: (§6) Table 23. In vitro characterization of scFvs reformatted as full-length antibodies. kon, koff, and KD of the indicated CTLA-4 mAbs for soluble human CTLA-4 was determined by SPR (Carterra). Geometric MFI of the indicated CTLA-4 mAbs bound to CTLA-4⁺ or CD27⁺ CHO cells as detected by a secondary human IgG antibody and flow cytometry. Affinity (KD) of the indicated CTLA-4 mAbs for soluble cynomolgus CTLA-4 was determined by a single antigen concentration BLI measurement (Octet). […] Due to constraints on sample size in each Promega bioassay kit, this set of aCTLA-4 mAbs was analyzed using multiple plates (plate letters correspond to Plate A-D in FIG. 20D).
(§7) To determine if the CTLA-4 mAbs bound the appropriate antigen expressed on the surface of mammalian cells, CHO cell lines stably expressing human CTLA-4 or an irrelevant antigen (CD27) were generated. Cells (0.5×10⁶ each cell line) were combined and washed with MACS buffer (Dulbecco's Phosphate Buffered Saline [DPBS], with 0.5% bovine serum albumin [BSA], and 2 mM ethylenediaminetetraacetic acid [EDTA]). The cells were incubated with 10 μg/mL anti-CTLA-4 for 30 min at 4° C., then excess, unbound mAbs were removed by washing twice with MACS buffer. The cells were then stained with PE-conjugated anti-Human IgG Fc antibody (clone M1310G05, BioLegend 410720, San Diego, Calif., USA) to detect bound anti-CTLA-4 and with fluorescein isothiocyanate (FITC)-conjugated anti-CD27 (clone 0323, BioLegend 302806, San Diego, Calif., USA) to distinguish the cells expressing the irrelevant antigen. Cells were washed twice with MACS buffer, fixed with 4% paraformaldehyde fixation buffer (BioLegend 420801, San Diego, Calif., USA) for 20 minutes at room temperature and washed twice more with MACS buffer.

Question: Which “MFI of CTLA-4+ CHO cells” value does the source give for B9 here?
Answer: 717

biological target: T4, CD27 on CHO cells (UniProt P26842 20-260, limits assumed); experiment: flow cytometry, 10 µg/mL mAb, geometric MFI
T4 construct: whole, on cells; also called CD27+ CHO cells; irrelevant antigen (CD27)
Method: as §6, §7

T4 sequence (P26842 20-260 limits assumed): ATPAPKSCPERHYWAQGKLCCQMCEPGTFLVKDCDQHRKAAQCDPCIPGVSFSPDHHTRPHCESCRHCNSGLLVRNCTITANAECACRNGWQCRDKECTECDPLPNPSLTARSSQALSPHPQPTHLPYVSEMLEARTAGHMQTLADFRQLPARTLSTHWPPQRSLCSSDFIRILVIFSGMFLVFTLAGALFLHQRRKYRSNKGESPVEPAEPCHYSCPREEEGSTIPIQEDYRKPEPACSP

Question: For B9, which “MFI of CD27+ CHO cells” value is on record?
Answer: 15.9

Question: How did the “MFI of CD27+ CHO cells” value turn out when B10 was run?
Answer: 17.1

Question: How did the “MFI of CD27+ CHO cells” value turn out when B11 was run?
Answer: 14.8

biological target: T4, CD27 on CHO cells; experiment: flow cytometry, mixed CTLA-4+ and CD27+ CHO cells
Method: To determine if the CTLA-4 mAbs bound the appropriate antigen expressed on the surface of mammalian cells, CHO cell lines stably expressing human CTLA-4 or an irrelevant antigen (CD27) were generated. Cells (0.5×10⁶ each cell line) were combined and washed with MACS buffer (Dulbecco's Phosphate Buffered Saline [DPBS], with 0.5% bovine serum albumin [BSA], and 2 mM ethylenediaminetetraacetic acid [EDTA]). The cells were incubated with 10 μg/mL anti-CTLA-4 for 30 min at 4° C., then excess, unbound mAbs were removed by washing twice with MACS buffer. The cells were then stained with PE-conjugated anti-Human IgG Fc antibody (clone M1310G05, BioLegend 410720, San Diego, Calif., USA) to detect bound anti-CTLA-4 and with fluorescein isothiocyanate (FITC)-conjugated anti-CD27 (clone 0323, BioLegend 302806, San Diego, Calif., USA) to distinguish the cells expressing the irrelevant antigen. Cells were washed twice with MACS buffer, fixed with 4% paraformaldehyde fixation buffer (BioLegend 420801, San Diego, Calif., USA) for 20 minutes at room temperature and washed twice more with MACS buffer. […] Binding of mAbs to CTLA-4 on the cell surface was determined using LSR II (BD Biosciences, San Jose, Calif., USA) or CytoFLEX LX (Beckman Coulter, Brea. Calif., USA) flow cytometers and analyzed using FlowJo (v10.6.1, BD Biosciences, San Jose, Calif., USA).

Question: Does B9 bind?
Answer: no binding (tested: 10 µg/mL)

Question: Does B10 bind?
Answer: no binding (tested: 10 µg/mL)

Question: Does B11 bind?
Answer: no binding (tested: 10 µg/mL)
